Measurements taken from paper doi:10.1101/2022.01.14.473406.
Like-named read-outs stand apart in the source and are kept apart here. Values belong to the molecule of their own block, whether it stands above or below them.

Legend:
[1] = target: AP-Endonuclease 1 (APE1) (human) (UniProt P27695); assay: SPR
[2] = target: T1, DNA ligase I EE/AA (C-terminal, delta261) (Homo sapiens, UniProt P18858 262-919, E346A;E592A); assay: X-ray crystallography
[3] = target: T1, DNA ligase I EE/AA (C-terminal, …); assay: X-ray crystallography; remark: listed apart in the source

T1 sequence (P18858 262-919 E346A/E592A): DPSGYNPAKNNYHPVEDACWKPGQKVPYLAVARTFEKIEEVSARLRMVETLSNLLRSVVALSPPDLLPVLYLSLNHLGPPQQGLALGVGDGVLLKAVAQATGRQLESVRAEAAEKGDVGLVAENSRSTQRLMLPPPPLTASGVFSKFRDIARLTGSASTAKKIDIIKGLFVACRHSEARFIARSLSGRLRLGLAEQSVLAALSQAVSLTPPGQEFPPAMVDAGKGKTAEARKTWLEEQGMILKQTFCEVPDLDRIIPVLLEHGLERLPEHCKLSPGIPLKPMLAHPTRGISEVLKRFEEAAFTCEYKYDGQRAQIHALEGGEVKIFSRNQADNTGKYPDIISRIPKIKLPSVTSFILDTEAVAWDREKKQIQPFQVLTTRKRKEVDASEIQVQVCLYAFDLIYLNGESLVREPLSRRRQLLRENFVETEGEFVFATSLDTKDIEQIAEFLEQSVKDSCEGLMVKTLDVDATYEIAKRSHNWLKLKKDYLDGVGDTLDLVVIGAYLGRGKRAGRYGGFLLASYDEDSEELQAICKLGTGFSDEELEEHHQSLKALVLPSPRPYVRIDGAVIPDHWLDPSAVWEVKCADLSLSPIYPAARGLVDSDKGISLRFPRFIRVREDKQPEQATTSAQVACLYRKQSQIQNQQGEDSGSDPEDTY
Chain of AP-Endonuclease 1 (APE1) (human) (P27695 whole entry): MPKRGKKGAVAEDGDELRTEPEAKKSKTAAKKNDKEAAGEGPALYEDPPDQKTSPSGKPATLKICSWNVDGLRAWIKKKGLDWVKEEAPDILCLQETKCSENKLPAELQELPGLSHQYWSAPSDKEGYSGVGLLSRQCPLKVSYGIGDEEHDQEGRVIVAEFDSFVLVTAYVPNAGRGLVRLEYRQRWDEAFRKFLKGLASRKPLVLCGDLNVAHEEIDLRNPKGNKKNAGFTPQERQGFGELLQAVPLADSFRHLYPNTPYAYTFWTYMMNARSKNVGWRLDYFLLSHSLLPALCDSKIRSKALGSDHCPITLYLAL

Kd [1]: 117 nM
Molecule: DNA ligase I (LIG1) (from UniProt P18858 1-919) (enzyme)

B1: nick DNA 3'-dA:T (dsDNA)
DNA 1: GCTGATGCGTA
DNA 2: GTCGGAC
DNA 3: GTCCGACTACGCATCAGC
modifications: 5'-phosphate on downstream strand; 5'-adenylated (DNA-AMP) in crystal
binding result [2]: binds

B2: nick DNA 3'-dG:T (dsDNA)
DNA 1: GCTGATGCGTG
DNA 2: GTCGGAC
DNA 3: GTCCGACTACGCATCAGC
modifications: 5'-phosphate on downstream strand; 5'-adenylated (DNA-AMP) in crystal
binding result [2]: binds

B3: nick DNA 3'-dA:C (dsDNA)
DNA 1: GCTGATGCGTA
DNA 2: GTCGGAC
DNA 3: GTCCGACCACGCATCAGC
modifications: 5'-phosphate on downstream strand
binding result [3]: binds
